Measurements from patent US11306156.

Experiments:
[1] = molecular target: tissue factor (TF) antigen (UniProt P13726); test: SPR; reference wild-type D3H44 Fab
[2] = molecular target: tissue factor (TF) antigen (UniProt P13726); test: SPR, Fab captured by anti-His, TF as analyte
[3] = molecular target: tissue factor (TF) antigen (UniProt P13726); test: SPR, Fab captured on anti-penta His, TF injected, 1:1 fit
[4] = molecular target: tissue factor (TF) antigen (UniProt P13726); test: SPR; against wild-type D3H44 Fab
[5] = molecular target: tissue factor (TF) antigen (UniProt P13726); test: SPR (ProteOn), Fab captured on anti-penta His, TF as analyte, 1:1 fit
[6] = molecular target: tissue factor (TF) antigen (UniProt P13726); test: SPR, Fab captured on anti-penta-His, TF as analyte, 1:1 fit

Sequence of tissue factor (TF) antigen (P13726 33-251 limits assumed): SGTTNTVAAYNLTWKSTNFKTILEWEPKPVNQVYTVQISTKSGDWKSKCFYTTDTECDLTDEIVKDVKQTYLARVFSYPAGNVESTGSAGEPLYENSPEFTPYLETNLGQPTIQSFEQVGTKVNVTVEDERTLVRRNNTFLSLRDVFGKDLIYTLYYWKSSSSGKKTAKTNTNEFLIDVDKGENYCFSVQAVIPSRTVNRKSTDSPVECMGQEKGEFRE

Substance	Kd [2] [nM]	Change in KD with respect to wild type (-(log(KD design) - log(KD wt))) [4]	Kd [5] [nM]	also measured
D3H44 Fab heterodimer, H L124R_Q179K / L V133G_S176D_T178E_T180E	–	–	–	Change in KD with respect to wild type (-(log(KD design) - log(KD wt))) [1]: -0.16; Kd [3]: 0.23 nM
D3H44 Fab heterodimer, H1 A139G_V190A / L1 L135W_S176L (H1L1 of LCCA set 9056)	–	-0.02	0.16	–
D3H44 Fab heterodimer, H1 Q179K / L1 Q124E_Q160E_T180E (H1L1 of LCCA set 9763)	–	-0.31	0.32	–
D3H44 Fab heterodimer, heavy L124E_L143E_K145T / light Q124K_V133G_Q160K_S176R	0.2	–	–	Change in KD of h1|1 Fab heterodimer with respect to wild type (-(log(KD design) - log(KD wt))) [1]: -0.12
D3H44 Fab heterodimer, H1 Q179K / L1 Q124E_T178E (H1L1 of LCCA set 9783)	–	0.05	0.14	–
D3H44 Fab heterodimer, H1 L124R_S186K / L1 V133G_S176D_T178D_T180E (H1L1 of LCCA set 9473)	–	-0.07	0.18	–
D3H44 Fab heterodimer, H L124E_L143E_K145T / L Q124K_V133G_Q160K_S176R	–	–	–	Change in KD with respect to wild type (-(log(KD design) - log(KD wt))) [1]: -0.12; Kd [3]: 0.2 nM; Change in KD with respect to wild type (-(log(KD design) - log(KD wt))) [6]: -0.12; Kd [6]: 0.2 nM
D3H44 Fab heterodimer, heavy L124R_S186K / light Q124E_V133G_S176D_T178D_T180E	0.26	–	–	Change in KD of h2|2 Fab heterodimer with respect to wild type (-(log(KD design) - log(KD wt))) [1]: -0.23
D3H44 Fab heterodimer, heavy L124R_S186R / light Q124E_V133G_S176D_T178D_T180E	0.26	–	–	Change in KD of h2|2 Fab heterodimer with respect to wild type (-(log(KD design) - log(KD wt))) [1]: -0.21
D3H44 Fab heterodimer, H L124R_Q179K / L Q124E_V133G_S176D_T178E_T180E	–	–	–	Change in KD with respect to wild type (-(log(KD design) - log(KD wt))) [1]: -0.15; Kd [3]: 0.22 nM; Change in KD with respect to wild type (-(log(KD design) - log(KD wt))) [6]: -0.15; Kd [6]: 0.22 nM
D3H44 Fab heterodimer, H1 S186K / L1 Q124E_T180E (H1L1 of LCCA set 9862)	–	0.46	0.06	–
D3H44 Fab heterodimer, heavy L124R_S186R / light V133G_S176D_T178E_T180E	0.22	–	–	Change in KD of h2|2 Fab heterodimer with respect to wild type (-(log(KD design) - log(KD wt))) [1]: -0.15
D3H44 Fab heterodimer, H1 L124E_L143D_K145M / L1 Q124K_V133G_S176R_T178K (H1L1 of LCCA set 9178)	–	-0.15	0.22	–
D3H44 Fab heterodimer, H1 L124E_L143D_K145T / L1 Q124K_V133G_S176R_T178K (H1L1 of LCCA sets 9216 and 9220)	–	-0.08	0.19	–
D3H44 Fab heterodimer, H L124R_Q179K / L V133G_Q160E_S176D_T180E	–	–	–	Change in KD with respect to wild type (-(log(KD design) - log(KD wt))) [1]: -0.08; Kd [3]: 0.19 nM
D3H44 Fab heterodimer, H1 L124R_D146N_Q179K / L1 Q124E_V133G_S176D_T178E_T180E (H1L1 of LCCA set 9351)	–	-0.1	0.2	–
D3H44 Fab heterodimer, H1 Q179K / L1 Q124E_T180E (H1L1 of LCCA sets 9796 and 9789)	–	0.16	0.11	–

Now from value to substance, other results behind:

Kd [2] [nM]	Change in KD with respect to wild type (-(log(KD design) - log(KD wt))) [4]	Kd [5] [nM]	Substance	also measured
0.28	–	–	D3H44 Fab heterodimer, heavy L124E_L143E_K145M / light Q124K_V133G_Q160K_S176R	Change in KD of h1|1 Fab heterodimer with respect to wild type (-(log(KD design) - log(KD wt))) [1]: -0.26
–	0.36	0.07	D3H44 Fab heterodimer, H1 S186R / L1 Q124E_T180E (H1L1 of LCCA set 9900)	–
0.24	–	–	D3H44 Fab heterodimer, heavy L124E_L143E_K145M / light Q124K_V133G_S176R_T178K	Change in KD of h1|1 Fab heterodimer with respect to wild type (-(log(KD design) - log(KD wt))) [1]: -0.19
0.31	–	–	D3H44 Fab heterodimer, heavy L124E_L143E_K145M / light Q124K_V133G_S176R_T178R	Change in KD of h1|1 Fab heterodimer with respect to wild type (-(log(KD design) - log(KD wt))) [1]: -0.29
–	-0.02	0.17	D3H44 Fab heterodimer, H1 A139W_S188L / L1 F116A_L135V (H1L1 of LCCA sets 9063 and 9062)	–
0.18	–	–	D3H44 Fab heterodimer, heavy L124R_S186K / light V133G_S176D_T178D_T180E	Change in KD of h2|2 Fab heterodimer with respect to wild type (-(log(KD design) - log(KD wt))) [1]: -0.07
